From US20240209330A1 (10X GENOMICS, published 2024)

Target: T1, recombinant Phi29 polymerase-SpyTag fusion protein (Bacillus phage phi29 (Bacteriophage …, UniProt P03680 2-575))
T1 construct: Expressed in E. coli with an amino terminal polyhistidine/SUMO tag (N-His/SUMO); The tag was cleaved with ULP1; also called N-His/SUMO Phi29 polymerase-SpyTag fusion protein; Phi29 with K-linker-SpyTag003
T1 sequence: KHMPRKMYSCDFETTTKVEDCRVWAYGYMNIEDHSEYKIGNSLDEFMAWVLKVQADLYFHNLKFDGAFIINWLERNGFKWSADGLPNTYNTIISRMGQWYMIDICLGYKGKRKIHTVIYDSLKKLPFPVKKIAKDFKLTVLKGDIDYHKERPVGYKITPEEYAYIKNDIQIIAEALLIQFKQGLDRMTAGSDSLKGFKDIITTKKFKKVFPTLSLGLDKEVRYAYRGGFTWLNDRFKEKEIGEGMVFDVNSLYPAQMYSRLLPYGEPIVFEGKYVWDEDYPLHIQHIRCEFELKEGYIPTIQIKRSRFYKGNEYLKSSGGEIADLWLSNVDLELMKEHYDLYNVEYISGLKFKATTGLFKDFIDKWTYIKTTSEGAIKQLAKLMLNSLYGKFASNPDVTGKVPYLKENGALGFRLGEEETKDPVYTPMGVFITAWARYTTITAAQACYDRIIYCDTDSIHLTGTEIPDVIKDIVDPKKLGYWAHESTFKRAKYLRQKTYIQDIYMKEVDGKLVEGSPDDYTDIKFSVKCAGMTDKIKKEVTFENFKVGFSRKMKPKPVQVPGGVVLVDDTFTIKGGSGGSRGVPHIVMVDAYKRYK
Assay: co-expression in E. coli, nickel purification, SDS-PAGE (covalent SpyCatcher:SpyTag coupling)
From the text: N-His/SUMO recombinant Phi29 polymerase-SpyCatcher fusion protein and recombinant Phi29 polymerase-SpyTag fusion protein were expressed as described in Example 3. The soluble fraction was collected and run on a nickel column. The SDS-PAGE for the various fractions are shown in FIG. 9A (SpyCatcher) and FIG. 9B (SpyTag). The SUMO tag was cleaved using a recombinant Ubl-specific protease 1 (ULP1). Fractions were collected for pre- and post-cleavage of the N-His/SUMO tag, as shown in FIG. 10A (SpyCatcher) and FIG. 10B (SpyTag). Each elution fraction was collected as 1 mL aliquots using an 80-100% gradient of 1 M NaCl.
When the Phi29 polymerase-SpyCatcher fusion protein, the Phi29 polymerase-SpyTag fusion protein were co-expressed in E. coli, a dimer of fusion proteins (e.g., a dimer of Phi29 polymerase-SpyCatcher:Phi29 polymerase-SpyTag; comprising two Phi29 polymerase domains), with an approximate molecular weight of 147.974 kDa, was generated based on the protein coupling between SpyCatcher:SpyTag. (FIG. 10C, lane 3).

B1: recombinant Phi29 polymerase-SpyCatcher fusion protein (enzyme)
chain: KHMPRKMYSCDFETTTKVEDCRVWAYGYMNIEDHSEYKIGNSLDEFMAWVLKVQADLYFHNLKFDGAFIINWLERNGFKWSADGLPNTYNTIISRMGQWYMIDICLGYKGKRKIHTVIYDSLKKLPFPVKKIAKDFKLTVLKGDIDYHKERPVGYKITPEEYAYIKNDIQIIAEALLIQFKQGLDRMTAGSDSLKGFKDIITTKKFKKVFPTLSLGLDKEVRYAYRGGFTWLNDRFKEKEIGEGMVFDVNSLYPAQMYSRLLPYGEPIVFEGKYVWDEDYPLHIQHIRCEFELKEGYIPTIQIKRSRFYKGNEYLKSSGGEIADLWLSNVDLELMKEHYDLYNVEYISGLKFKATTGLFKDFIDKWTYIKTTSEGAIKQLAKLMLNSLYGKFASNPDVTGKVPYLKENGALGFRLGEEETKDPVYTPMGVFITAWARYTTITAAQACYDRIIYCDTDSIHLTGTEIPDVIKDIVDPKKLGYWAHESTFKRAKYLRQKTYIQDIYMKEVDGKLVEGSPDDYTDIKFSVKCAGMTDKIKKEVTFENFKVGFSRKMKPKPVQVPGGVVLVDDTFTIKGGSGGSVTTLSGLSGEQGPSGDMTTEEDSATHIKFSKRDEDGRELAGATMELRDSSGKTISTWISDGHVKDFYLYPGKYTFVETAAPDGYEVATPIEFTVNEDGQVTVDGEATEGDAHT
notes: Expressed in E. coli with an amino terminal polyhistidine/SUMO tag (N-His/SUMO); The tag was cleaved with ULP1; also called N-His/SUMO Phi29 polymerase-SpyCatcher fusion protein; Phi29 with K-linker-SpyCatcher003
  binding result: binds
